Starred links: 1 amine or outer side, 2 acyl side, 3 side chain; linkers in the order of their positions; H or OH if unused. Positions of bridges follow the written chain, without caps; N, C: chain ends. Non-standard residues stand in square brackets, D forms with d. Primed or numbered codes have the meaning given here. PyrS2″ = (S)-3-amino-1-((pent-4-en-1-yloxy)carbonyl)pyrrolidine-3-carboxylic acid (stapling residue), C=CCCCOC(=O)N1CC[C@@](N[*:1])(C(=O)[*:2])C1; B5(16) = 2-amino-2-(pent-4-en-1-yl)hept-6-enoic acid = 2,2-bis(4-pentenyl)glycine (stitching residue), C=CCCCC(CCCC=C)(N[*:1])C(=O)[*:2]; B5(4) = 2,2-bis(4-pentenyl)glycine = 2-amino-2-(pent-4-en-1-yl)hept-6-enoic acid (stitching residue), C=CCCCC(CCCC=C)(N[*:1])C(=O)[*:2]; B5(5) = 2,2-bis(4-pentenyl)glycine, 2-amino-2-(pent-4-en-1-yl)hept-6-enoic acid (stitching residue), C=CCCCC(CCCC=C)(N[*:1])C(=O)[*:2]; TfeGA = (S)-2-amino-3-((carboxymethyl)(2,2,2-trifluoroethyl)amino)propanoic acid, O=C([C@H](CN(CC(=O)[*:3])CC(F)(F)F)N[*:1])[*:2]; PyrS2 = (S)-3-amino-1-((pent-4-en-1-yloxy)carbonyl)pyrrolidine-3-carboxylic acid, C=CCCCOC(=O)N1CC[C@@](N[*:1])(C(=O)[*:2])C1; PyrS1 = (S)-3-amino-1-((but-3-en-1-yloxy)carbonyl)pyrrolidine-3-carboxylic acid, C=CCCOC(=O)N1CC[C@@](N[*:1])(C(=O)[*:2])C1; B5(3) = 2,2-bis(4-pentenyl)glycine (stitching residue), C=CCCCC(CCCC=C)(N[*:1])C(=O)[*:2]; AspSH = (S)-2-amino-4-mercapto-4-oxobutanoic acid, O=C(C[C@H](N[*:1])C(=O)[*:2])S[*:3]; B5 = 2-amino-2-(pent-4-en-1-yl)hept-6-enoic acid, C=CCCCC(CCCC=C)(N[*:1])C(=O)[*:2]; B6 = 2-amino-2-(hex-5-en-1-yl)oct-7-enoic acid, C=CCCCCC(CCCCC=C)(N[*:1])C(=O)[*:2]; Phe(3-CONH2) = NC(=O)c1cccc(C[C@H](N)C(=O)O)c1; Phe(3-COOH) = N[C@@H](Cc1cccc(C(=O)O)c1)C(=O)O; Phe(4-CONH2) = NC(=O)c1ccc(C[C@H](N)C(=O)O)cc1; 2F3MeF = Cc1cccc(C[C@H](N[*:1])C(=O)[*:2])c1F; Phe(2-CF3) = N[C@@H](Cc1ccccc1C(F)(F)F)C(=O)O; Phe(2-CONH2) = NC(=O)c1ccccc1C[C@H](N)C(=O)O; Phe(3-Cl) = N[C@@H](Cc1cccc(Cl)c1)C(=O)O; Phe(4-Cl) = N[C@@H](Cc1ccc(Cl)cc1)C(=O)O; Phe(2-Cl) = N[C@@H](Cc1ccccc1Cl)C(=O)O; Bta = N[C@@H](Cc1csc2ccccc12)C(=O)O; Lys(iPr) = CC(C)NCCCC[C@H](N)C(=O)O; αAllylPro = C=CC[C@@]1(C(=O)O)CCCN1; tBuAla = CC(C)(C)C[C@H](N)C(=O)O; 3Thi = N[C@@H](Cc1ccsc1)C(=O)O; Cha = N[C@@H](CC1CCCCC1)C(=O)O; S8 = C=CCCCCCC[C@](C)(N)C(=O)O; αMeP = C[C@@]1(C(=O)O)CCCN1; TfeGA″ = not defined here; hSer = N[C@@H](CCO)C(=O)O; Nle = CCCC[C@H](N)C(=O)O; Aib = CC(C)(N)C(=O)O
B1: I-2228 (peptide)
peptide: Ac-[αMeP]D[tBuAla][Aib]DDAAFQ[Aib][3Thi][Bta]H-NH2
SMILES: CC(=O)N1CCC[C@@]1(C)C(=O)N[C@@H](CC(=O)O)C(=O)N[C@@H](CC(C)(C)C)C(=O)NC(C)(C)C(=O)N[C@@H](CC(=O)O)C(=O)N[C@@H](CC(=O)O)C(=O)N[C@@H](C)C(=O)N[C@@H](C)C(=O)N[C@@H](Cc1ccccc1)C(=O)N[C@@H](CCC(N)=O)C(=O)NC(C)(C)C(=O)N[C@@H](Cc1ccsc1)C(=O)N[C@@H](Cc1csc2ccccc12)C(=O)N[C@@H](Cc1c[nH]cn1)C(N)=O
B2: I-2231 (peptide)
peptide: Ac-[αMeP]D[tBuAla][Aib]DDAAFQ[Aib][3Thi][Bta]HK-NH2
SMILES: CC(=O)N1CCC[C@@]1(C)C(=O)N[C@@H](CC(=O)O)C(=O)N[C@@H](CC(C)(C)C)C(=O)NC(C)(C)C(=O)N[C@@H](CC(=O)O)C(=O)N[C@@H](CC(=O)O)C(=O)N[C@@H](C)C(=O)N[C@@H](C)C(=O)N[C@@H](Cc1ccccc1)C(=O)N[C@@H](CCC(N)=O)C(=O)NC(C)(C)C(=O)N[C@@H](Cc1ccsc1)C(=O)N[C@@H](Cc1csc2ccccc12)C(=O)N[C@@H](Cc1c[nH]cn1)C(=O)N[C@@H](CCCCN)C(N)=O
B3: I-383 (peptide)
peptide: XDAXDEAAFVXXXQ
modifications: not fully specified; N-terminal Ac; PL3 at 1, B5 at 4, S8 at 11 (staples 1-4 and 4-11 by olefin metathesis); 2pyrA at 12; BztA at 13; C-terminal NH2

The binders below were run against full-length beta-Catenin (Uniprot ID P35222) (Homo sapiens (Human)) (UniProt P35222) (assay: fluorescence polarization competition; displacement of 5FAM-TCF4(10-53) from full-length beta-catenin).
Target sequence in this assay (P35222 whole entry): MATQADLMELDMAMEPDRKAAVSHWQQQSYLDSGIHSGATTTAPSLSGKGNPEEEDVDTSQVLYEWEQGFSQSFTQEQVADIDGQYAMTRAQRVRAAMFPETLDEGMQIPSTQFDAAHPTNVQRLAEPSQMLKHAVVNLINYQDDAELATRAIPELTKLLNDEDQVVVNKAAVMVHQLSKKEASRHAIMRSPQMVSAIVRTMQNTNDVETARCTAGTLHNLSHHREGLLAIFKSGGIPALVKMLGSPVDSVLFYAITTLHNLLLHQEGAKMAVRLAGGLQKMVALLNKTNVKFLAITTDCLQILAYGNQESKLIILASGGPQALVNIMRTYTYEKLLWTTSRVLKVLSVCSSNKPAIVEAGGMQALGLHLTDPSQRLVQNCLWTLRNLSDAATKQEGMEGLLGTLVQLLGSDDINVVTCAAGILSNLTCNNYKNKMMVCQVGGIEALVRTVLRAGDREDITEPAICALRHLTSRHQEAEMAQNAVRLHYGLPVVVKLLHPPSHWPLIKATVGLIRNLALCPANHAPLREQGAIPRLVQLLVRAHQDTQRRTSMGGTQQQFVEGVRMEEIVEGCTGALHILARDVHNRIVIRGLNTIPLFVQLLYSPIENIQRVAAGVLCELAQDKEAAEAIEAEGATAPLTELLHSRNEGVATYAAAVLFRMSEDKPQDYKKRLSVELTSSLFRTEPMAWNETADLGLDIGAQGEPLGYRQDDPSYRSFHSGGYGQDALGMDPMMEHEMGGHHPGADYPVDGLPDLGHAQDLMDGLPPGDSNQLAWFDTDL

Compared with Ac-[αAllylPro]D[Nle][B5(5)]DEAAF[hSer][S8]F[Bta]Q-NH2 (staple 1-4, 4-11; also: staple isomer, earlier eluting HPLC peak) [I-1524: Ac-PL3-Asp-nLeu-B5-Asp-Glu-Ala-Ala-Phe-Hse-S8-Phe-BztA-Gln-NH2], Ac-[αAllylPro]D[Nle][B5(5)]DEAAFL[S8]F[Bta]Q-NH2 (staple 1-4, 4-11) [I-1523: Ac-PL3-Asp-nLeu-B5-Asp-Glu-Ala-Ala-Phe-Leu-S8-Phe-BztA-Gln-NH2] is 1.7-fold higher in IC50: 17 nM for the first, 29 nM for the second. The first is the more potent here.

Ac-[αAllylPro]D[Nle][B5(5)]DEAAF[hSer][S8]F[Bta]Q-NH2 (staple 1-4, 4-11) [I-1525: Ac-PL3-Asp-nLeu-B5-Asp-Glu-Ala-Ala-Phe-Hse-S8-Phe-BztA-Gln-NH2] gave an IC50 of 22 nM.

These binders were tested against full-length beta-Catenin (Uniprot ID P35222) (Homo sapiens (Human)) (UniProt P35222) (assay: fluorescence polarization competition; peptide titrated against 10 nM full-length beta-catenin + 10 nM 5FAM-TCF4(10-53)).

First: Ac-[αAllylPro]D[tBuAla][B5(3)]DDAAFQ[PyrS2″][3Thi][Bta]HK-NH2 (staple 1-4, 4-11; also: earlier eluting staple isomer) [I-2229]
Second: Ac-[αAllylPro]D[tBuAla][B5(4)]D[TfeGA″]AAFL[PyrS2″][3Thi][Bta]T-NH2 (staple 1-4, 4-11; reading uncertain) [I-1706]
The IC50 of the first is 4-fold lower: 6 nM for the first, 24 nM for the second.

Ac-[αAllylPro]N[Cha][B5(5)]DQ[Lys(iPr)]AFN[PyrS2″]N[Bta][hSer]-NH2 (staple 1-4, 4-11) [I-2170] and Ac-[αAllylPro]N[Cha][B5(5)]DQ[Lys(iPr)]AFN[PyrS2″]Q[Bta][hSer]-NH2 (staple 1-4, 4-11) [I-2171] are the same in IC50: 10000 nM for the first, 10000 nM for the second.

Going from Ac-[αAllylPro]D[tBuAla][B5(3)]D[Phe(3-COOH)]AAFL[PyrS2″][2F3MeF][Phe(3-Cl)]S-NH2 (staple 1-4, 4-11) [I-2226] to Ac-[αAllylPro]N[Cha][B5(5)]DQ[Lys(iPr)]AFL[PyrS2″][Phe(3-CONH2)][Bta][hSer]-NH2 (staple 1-4, 4-11) [I-2166], the IC50 rises from 97 nM to 1590 nM (16-fold). The first is the more potent here.

Compared with Ac-[αAllylPro]D[tBuAla][B5(3)]D[Phe(3-COOH)]AAFL[PyrS2″][2F3MeF][Phe(4-Cl)]S-NH2 (staple 1-4, 4-11) [I-2222], B1 is 25-fold higher in IC50: 84 nM for the first, 2140 nM for the second.

Compared with Ac-[αAllylPro]D[tBuAla][B6]D[Phe(3-COOH)]QAFL[PyrS1][Phe(2-CF3)][Bta]A-NH2 (staple 1-4, 4-11) [I-2510], Ac-[αAllylPro]N[Cha][B5(5)]DQ[Lys(iPr)]AFL[PyrS2″][Phe(3-CONH2)][Bta]Q-NH2 (staple 1-4, 4-11) [I-2163] is 160-fold higher in IC50: 24 nM for the first, 3720 nM for the second.

Compared with Ac-[αAllylPro]N[Cha][B5(4)]DQ[Lys(iPr)]AFN[PyrS2″][Phe(2-CONH2)][Bta][hSer]-NH2 (staple 1-4, 4-11) [I-2168], Ac-[αAllylPro]N[Cha][B5(5)]DQ[Lys(iPr)]A[Phe(2-CONH2)]N[PyrS2″]F[Bta][hSer]-NH2 (staple 1-4, 4-11) [I-2173] is 14-fold higher in IC50: 212 nM for the first, 3070 nM for the second. The first is the more potent here.

First: Ac-[αAllylPro]D[tBuAla][B5(3)]D[Phe(3-COOH)]QAFL[PyrS2″][2F3MeF][Phe(3-Cl)]A-NH2 (staple 1-4, 4-11) [I-2227]
Second: Ac-[αAllylPro]D[tBuAla][B5(4)]D[TfeGA]AAFL[PyrS2″][3Thi][Bta]T-NH2 (staple 1-4, 4-11; also: -CH=CH- in each staple reduced to -CH2-CH2-) [I-1716]
The IC50 of the first is 4.8-fold lower: 47 nM for the first, 224 nM for the second. The first is the more potent here.

Ac-[αAllylPro]D[tBuAla][B5(5)]D[TfeGA]AAFL[PyrS2″][3Thi][Bta][Phe(3-CONH2)]-NH2 (staple 1-4, 4-11; also: staples hydrogenated: -CH=CH- reduced to -CH2-CH2-) [I-1718] and Ac-[αAllylPro]N[Cha][B5(5)]DQ[Lys(iPr)]AFL[PyrS2″]F[Bta][hSer]-NH2 (staple 1-4, 4-11) [I-2165] are within 1.5-fold of each other in IC50: 382 nM for the first, 441 nM for the second.

Going from Ac-[αAllylPro]D[tBuAla][B5(16)]D[TfeGA]AAFL[PyrS2″][3Thi][Bta]N-NH2 (staple 1-4, 4-11) [I-1705] to Ac-[αAllylPro]N[Cha][B5(5)]DQ[Lys(iPr)]A[Phe(4-CONH2)]N[PyrS2″]F[Bta][hSer]-NH2 (staple 1-4, 4-11) [I-2174], the IC50 rises from 9 nM to 10000 nM (1100-fold).

Compared with B2, Ac-[αAllylPro]N[Cha][B5(4)]DQ[Lys(iPr)]AFN[PyrS2″]F[Bta][hSer]-NH2 (staple 1-4, 4-11) [I-2167] is 26-fold lower in IC50: 5190 nM for the first, 199 nM for the second. The second is the more potent here.

Compared with Ac-[αAllylPro]N[Cha][B5(5)]DQ[Lys(iPr)]AFN[PyrS2″][Phe(3-CONH2)][Bta]Q-NH2 (staple 1-4, 4-11) [I-2164], Ac-[αAllylPro]D[tBuAla][B5(5)]D[TfeGA]AAFL[PyrS2″][3Thi][Bta][Phe(2-CONH2)]-NH2 (staple 1-4, 4-11; also: staples hydrogenated: -CH=CH- reduced to -CH2-CH2-) [I-1717] is 4.7-fold lower in IC50: 1180 nM for the first, 249 nM for the second. The second is the more potent here.

Compared with Ac-[αAllylPro]N[Cha][B5(5)]DQ[Lys(iPr)]AFN[PyrS2″][Phe(4-CONH2)][Bta][hSer]-NH2 (staple 1-4, 4-11) [I-2169], Ac-[αAllylPro]D[tBuAla][B5(3)]DDAAFQ[PyrS2″][3Thi][Bta]HK-NH2 (staple 1-4, 4-11; also: later eluting staple isomer) [I-2230] is 1200-fold lower in IC50: 10000 nM for the first, 8 nM for the second. The second is the more potent here.

Going from Ac-[αAllylPro]D[tBuAla][B5(4)]D[TfeGA]AAFL[PyrS2″][3Thi][Bta]N-NH2 (staple 1-4, 4-11; also: -CH=CH- in each staple reduced to -CH2-CH2-) [I-1715] to Ac-[αAllylPro]N[Cha][B5(5)]DQ[Lys(iPr)]AFN[PyrS2″]Y[Bta][hSer]-NH2 (staple 1-4, 4-11) [I-2172], the IC50 rises from 95 nM to 10000 nM (110-fold).

Ac-[αAllylPro]D[tBuAla][B5(4)]D[TfeGA]AAFL[PyrS2″][3Thi][Bta][Phe(2-CONH2)]-NH2 (staple 1-4, 4-11) [I-1707] and Ac-[αAllylPro]D[tBuAla][B5(5)]DDAAFN[PyrS2″][3Thi]WQ-NH2 (staple 1-4, 4-11) [I-2175] are the same in IC50: 19 nM for the first, 19 nM for the second.

Compared with Ac-[αAllylPro]D[tBuAla][B5(4)]D[TfeGA]AAFL[PyrS2″][3Thi][Bta][Phe(3-CONH2)]-NH2 (staple 1-4, 4-11) [I-1708], Ac-[αAllylPro]D[tBuAla][B5(3)]D[Phe(3-COOH)]QAFL[PyrS2″][2F3MeF][Phe(4-Cl)]A-NH2 (staple 1-4, 4-11) [I-2223] is 1.7-fold higher in IC50: 29 nM for the first, 50 nM for the second. The first is the more potent here.

Compared with B3, Ac-[αAllylPro]D[tBuAla][B5(3)]D[Phe(3-COOH)]AAFL[PyrS2″][3Thi][Phe(3-Cl)]Q-NH2 (staple 1-4, 4-11) [I-2224] is 360-fold lower in IC50: 5000 nM for the first, 14 nM for the second. The second is the more potent here.

With Ac-[αAllylPro][AspSH][tBuAla][B5]DDAAFN[PyrS2][Phe(2-Cl)][Bta]Q-NH2 (staple 1-4, 4-11; not fully specified) [I-1721] the IC50 was 139 nM.

Reference: US20240116985A1, “STAPLED PEPTIDES AND METHODS THEREOF” (priority 2020, published 2024)
